Source: US20090304719A1 (University of California, published 2009)
Bridges are numbered along the chain shown (N, C = ends). Where no end group is shown, it is not given here. CPX = display scaffold, circularly permuted E. coli OmpX, fused C-terminal

What was measured:
VEGF [1] = biological target: T1, VEGF (UniProt P15692-4 27-191, limits assumed, biotinylated in the FACS assays (sites not given)); experiment: SPR (Biacore), VEGF amine-coupled to a CM5 chip, soluble MBP fusion injected with and without 30 nM MMP-2 (FIG. 27)
T1 construct: Species and isoform are never stated; also called labeled VEGF; biotinylated VEGF
T1 sequence (P15692 other isoform, or with tags, fused parts or gaps limits assumed): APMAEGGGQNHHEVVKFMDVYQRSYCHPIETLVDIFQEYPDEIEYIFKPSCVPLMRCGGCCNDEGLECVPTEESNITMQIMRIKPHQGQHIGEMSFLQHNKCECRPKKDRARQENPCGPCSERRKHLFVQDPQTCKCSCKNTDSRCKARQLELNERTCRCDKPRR

VEGF [2] = biological target: T1, VEGF; experiment: Kd,app of VEGF binding to the construct displayed on E. coli, with MMP-2 against without (FIG. 13)
VEGF [3] = biological target: T1, VEGF; experiment: FACS, ABP displayed on E. coli (CPX), labeled VEGF; MMP-2 treated against untreated
Protocol: (§1) In experiments involving addition of enzyme, 30 nM MMP-2 was included in the Tris-Cl buffer (no enzyme added to the control reaction), and the reaction mixture was incubated at room temperature for 2 hours. Cells were then removed and diluted 1:100 in PBS (pH 7.4) to stop the reaction, pelleted by centrifugation, and resuspended in 30 microliters of refrigerated PBS containing 25 nM biotinylated VEGF. After incubation in the refrigerator on a rotary shaker for 45 minutes, cells were pelleted at 4° C. and resuspended in refrigerated PBS containing 50 nM Streptavidin-Phycoerythrin fluorescent conjugate. After incubation in the refrigerator on a rotary shaker for 45 minutes, cells were pelleted at 4° C. and resuspended in PBS and red fluorescence was measured for analysis or sorting on a FACSAria cell sorter. The fluorescence of cells treated with enzyme was compared to control samples to determine the increase in VEGF binding.

VEGF [4] = biological target: T1, VEGF; experiment: FACS, construct displayed on E. coli (CPX), labeled VEGF; treated against untreated
VEGF [5] = biological target: T1, VEGF; experiment: FACS, construct displayed on E. coli (CPX), labeled VEGF; with MMP-2 against without (FIG. 23)
Protocol: as §1
(§2) In an additional experiment, the fluorescence values for a cysteine constrained loop structure were determined in the presence and absence of MMP-2 and compared with the fluorescence values for library clones 4.2A.11 (a.k.a. 4-2A-11) and 2.3B.5 (a.k.a. 2-3B-5) in the presence and absence of MMP-2.

anti-VEGF scFv TBM = biological target: T2, anti-VEGF scFv TBM; experiment: FACS, peptide displayed on bacteria, anti-VEGF scFv; clones selected with labeled ranibizumab
T2 construct: The design included a His6 tag at the N-terminus and a TEV site; also called anti-VEGF single chain Fv
T2 sequence (scFv, as listed by the source): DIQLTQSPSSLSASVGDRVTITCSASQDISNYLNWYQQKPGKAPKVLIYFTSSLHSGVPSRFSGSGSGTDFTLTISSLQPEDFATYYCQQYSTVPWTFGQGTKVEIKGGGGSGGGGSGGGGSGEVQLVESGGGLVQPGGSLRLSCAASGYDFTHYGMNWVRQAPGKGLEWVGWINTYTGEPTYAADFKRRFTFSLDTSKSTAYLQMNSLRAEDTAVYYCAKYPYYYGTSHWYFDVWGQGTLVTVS
Protocol: Ranibizumab was used to screen a pooled random peptide library, consisting of peptides that are X₁₅ (8.3×10⁹), X₄CX₇CX₄ (3.6×10⁹), or X₁₂CX₃ (1.1×10⁹), where X is any amino acid and the number represents the total diversity of the library. The total diversity of the pooled library was 1.3×10¹⁰. The screening consisted of one round of MACS and […] of FACS sorting. […] In the first FACS screen, positive cells isolated in the MACS screen were probed with 500 nM biotinylated-ranibizumab, and visualized with neutrAvidin-PE (Molecular Probes, Eugene, Oreg.). The second and third rounds of FACS selections were done with 500 nM and then 100 nM Alexa-labeled ranibizumab in the presence of 20 uM IgG. Individual clones were sequenced and subsequently verified for their ability to bind anti-VEGF scfv by FACS analysis.

VEGF [6] = biological target: T1, VEGF; experiment: FACS, clone displayed on E. coli (CPX), labeled VEGF; with MMP-2 against without (FIG. 23)
Protocol: as §1, §2

VEGF [7] = biological target: T1, VEGF; experiment: Kd,app of VEGF binding to the clone displayed on E. coli, with MMP-2 against without (FIG. 14)
[8] = biological target: T3, UC4F10-11 hamster anti-mouse CTLA4 antibody; experiment: bacterial display screening against anti-CTLA4 antibody; assay for this peptide not detailed
T3 construct: Whole antibody, biotinylated or Dylight-labeled in the sorts; also called mouse anti-CTLA4 antibody (clone UC4 F10-1); anti-CTLA4
T3 sequence (VH, as listed by the source limits assumed, chain 1 of 2): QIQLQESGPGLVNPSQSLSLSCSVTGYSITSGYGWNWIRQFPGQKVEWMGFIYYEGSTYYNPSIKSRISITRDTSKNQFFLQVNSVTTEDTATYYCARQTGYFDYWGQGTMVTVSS
T3 sequence (VL, as listed by the source limits assumed, chain 2 of 2): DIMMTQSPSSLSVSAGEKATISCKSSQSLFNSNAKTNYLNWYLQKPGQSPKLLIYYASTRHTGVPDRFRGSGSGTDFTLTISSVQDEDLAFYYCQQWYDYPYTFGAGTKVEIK

VEGF [9] = biological target: T1, VEGF; experiment: FACS, construct displayed on E. coli (CPX), labeled VEGF; MMP-2 treated against untreated (FIG. 25)
Protocol: as §1

B1: maltose-binding protein (MBP) fusion of ABP clone 2.3B.5 (designed binder, not shown: large carriers; small tags and cut ends)
chain: CEYAFGPLGLAGGGSGNFGYGKWEWDYGKWLEKVGGC
modifications: also: fusion with maltose-binding protein (order not certain), disulfide Cys1–C-terminal Cys possible
notes: Soluble protein; the order MBP then ABP is my reading and is not certain; also called 2.3B.5 (2-3B-5) fusion; MBP-ABP fusion
Question: For B1, which “fold increase in binding response in the presence of MMP-2” value (VEGF [1]) is on record?
Answer: The value was about 4 fold.

B2: cysteine constrained loop ABP (designed binder)
chain: GQSGQGCGSGPLGLAGGGSGNFGYGKWEWDYGKWLEKVGGC-{CPX}
modifications: disulfide 7-41 (inferred); also: fused C-terminal to CPX display scaffold, letters not given here
notes: Tested untreated, after MMP-2 treatment and after DTT reduction; also called cysteine constrained parent; cysteine constrained loop structure; not shown: CPX display scaffold (circularly permuted E. coli OmpX), fused C-terminal of the ABP
Question: What does the source list for B2?
Answer: fold improvement in Kd,app in the presence of MMP-2 (VEGF [2]): ~3.4 fold; fold increase in fluorescence after MMP-2 treatment (VEGF [3]): ~2.6 fold; fold switching activity (VEGF [4]): 2 fold; fold increase in fluorescence in the presence of MMP-2 (VEGF [5]): ~3 fold

Question: Does NVECCQNYNLWNCCGGR (also called 308 MM) [JS308] bind (anti-VEGF scFv TBM)?
Answer: Result: binds

Question: Does PCSEWQSMVQPRCYYGG [JS306] bind (anti-VEGF scFv TBM)?
Answer: Result: binds

Question: Does GAMACYNIFEYWCSAMK (also called 315 MM) [JS315] bind (anti-VEGF scFv TBM)?
Answer: Result: binds

B3: ABP library clone 4-2A-11 (designed binder)
chain: GQSGQGEDEEGPLGLAGGGSGNFGYGKWEWDYGKWLEKVGGG
notes: not shown: CPX display scaffold (circularly permuted E. coli OmpX), fused C-terminal of the ABP
Question: With B3 as the binder, how does the “fold increase in fluorescence in the presence of MMP-2” value (VEGF [6]) read?
Answer: The value was about 5.7 fold.

Question: Does ATAVWNSMVKQSCYMQG (also called 283 MM) [JS283] bind (anti-VEGF scFv TBM)?
Answer: Result: binds

Question: Does GHGMCYTILEDHCDRVR (also called 292 MM) [JS292] bind (anti-VEGF scFv TBM)?
Answer: Result: binds

B4: ABP library clone 2-2A-5 (designed binder)
chain: GQSGQPEWGCGPLGLAGGGSGNFGYGKWEWDYGKWLEKVGGC-{CPX}
modifications: disulfide 10-42 (inferred); also: fused C-terminal to CPX display scaffold, letters not given here
notes: Tested untreated, after MMP-2 and after DTT; not shown: CPX display scaffold (circularly permuted E. coli OmpX), fused C-terminal of the ABP
Question: B4 was tested. Which “fold improvement in Kd,app in the presence of MMP-2” value (VEGF [7]) did it give?
Answer: Its value is about 4.8 fold.

Question: Does GVGLCYTILEQWCEMGR (also called 313 MM) [JS313] bind (anti-VEGF scFv TBM)?
Answer: Result: binds

Question: Does VHAWEQLVIQELYHC (also called 311 MM) [JS311] bind (anti-VEGF scFv TBM)?
Answer: Result: binds

Question: Does RPPCCRDYSILECCKSD [JS314] bind (anti-VEGF scFv TBM)?
Answer: Result: binds

Question: Does PCSEWQSMVQPRCYY (also called MMneg) [Negative control MM (does not bind anti-CTLA4)] bind [8]?
Answer: Result: no binding

B5: GS control (designed binder)
chain: GQSGQGGSGGSGGSGGSGGSPLGLAGGGSGNFGYGKWEWDYGKWLEKVGGG
modifications: also: fused C-terminal to CPX display scaffold, letters not given here
notes: Control lacking the cysteine-cysteine disulfide bond; also called GS control polypeptide; not shown: CPX display scaffold (circularly permuted E. coli OmpX), fused C-terminal of the construct
Question: B5 was tested. Which “fold increase in fluorescence after enzyme cleavage” value (VEGF [9]) did it give?
Answer: The value was under 2 fold.
